This data set relates to fracture of the right tibia. The data set is classed as in vivo, Sprague Dawley rats. How it is done: In an experiment with animals, tests were conducted on 60 such animals (5-months-old female Sprague Dawley rats). All test animals were subjected to a standardized fracture of the right tibia. Differently coated titanium wires (1.0 mm in diameter) were then implanted in the repositioned tibiae as intramedullary supports.
Depending on the group assignments as specified below 2 mg/kg of a rat-specific recombinant growth hormone (r-rGH) or a placebo was subcutaneously injected daily for a period of time up to 42 days. At various time points (0 d, 4 d, 7 d, 14 d, 21 d, 28 d, 35 d, and 42 d) and after administration of an anaesthetic inhalant, x-rays were taken in two planes, 1.25 ml of blood was taken from each by the retrobulbar method (deep-frozen at −80° C. (−112° F.)), and their weight and body temperature were measured. On day 42, the fractured and the unfractured tibiae, along with the periosteum, were separately prepared and subjected to biomechanical tests (torsional load-torsional stiffness).
Group Assignments • Group I: Fracture of the right tibia—uncoated implant— • Systemic application of a placebo (control group) • Group II: Fracture of the right tibia—implant coated with poly-D,L-lactide 203— • Systemic application of a placebo • Group III: Fracture of the right tibia—implant coated with poly-D,L-lactide— • Systemic application of (r-rGH) • Group IV: Fracture of the right tibia—implant coated with poly-D,L-lactide and growth factors IGF-I (5%) and TGF-β (1%)— • Systemic application of a placebo • Group V: Fracture of the right tibia—implant coated with poly-D,L-lactide and growth factors IGF-I (5%) and TGF-β (1%)— • Systemic application of (r-rGH)
The coated implants were produced as indicated in Example 1.

Regarding poly(D,L) lactide [PDLLA], the “differences in weight and temperature among placebo groups I, II and IV” value (rat, in vivo) is given as “No major differences”.

B1: r-rGH: rat-specific recombinant growth hormone, subcutaneously injected (protein, UniProt P01244 27-216, looked up)
Somatotropin: FPAMPLSSLFANAVLRAQHLHQLAADTYKEFERAYIPEGQRYSIQNAQAAFCFSETIPAPTGKEEAQQRTDMELLRFSLLLIQSWLGPVQFLSRIFTNSLMFGTSDRVYEKLKDLEEGIQALMQELEDGSPRIGQILKQTYDKFDANMRSDDALLKNYGLLSCFKKDLHKAETYLRVMKCRRFAESSCAF
The molecule B1 displayed a body weight increase (2 mg/kg s.c. daily, compared to placebo, p<0.05) of 13%. Further, the maximum torsional load entry (day 42, systemic 2 mg/kg s.c. daily with implant coated with poly-D,L-lactide (Group III), p<0.05) is “significant increase”.

Source of the values: patent publication US10646622B2, “Biologically active implants” (priority 1998, dated 2020).
